# Experiment: soluble on expression in E. coli; label from the status in PepcDB or PDB records
row,Sequence,soluble on expression in E. coli
1,MRTATSTSPATGTPAPVPSRTPDVTVTVIVYNDAGRLPRAVASALRQSHANIEVVISDDHSTDATEEVARELAAHDPRVVYLRLPENSGGCSAPRNRALEIARAPYLMFLDSDDELPERAVEVLLAAHRERDLDFAMGAVHRIREDGGRRTTWMPHLVAERRTLDGIEADPRLLFEHLSTSKMYARAFLDRHGLRFPEGIHYEDQLFSAQAYCLAKTFTVVPEPVYRWYIAPYADADSASISNQRHKLTNVRDRVHVQRLIDAFLAESGHEALREDKDFKFLKHDFRMYAGDLPYRDDTWLASFADLMNPYLDTLAEGAYARLPRAERVVLRLLRDRRLSDVRTAARGLGHDVAPRRVTPDEQSGRVYWGEEVPASPESRRELDLTDLDLDTRPFFTALLRHEITEITRGPGASVDLTVRTYDPALRLPVGPQRAVLHLSPGPRRLTVPFRLSPVRPGLFEGRVRLDLAAARLPLHGFAGTRHPVLRLRHRGRTHTGILLAPLAFPPLTARVPYRTGLTPHRVTLRPEGHNPGRLQITWQPVGTTAKILGPAARRLSTPRTRRAARLLSNILRLEHHHHHH,soluble
2,MGSDKIHHHHHHMSKKIIDEVIDILEDKKYTYTMIEYPEHNRKSVDIVLNSKEPTLIRVSEDKITKEEISDLKKIAVSTLTASLVVTNEEEEDIVSVKADNVFAISPEGFKKVINGEKIFLYRTRGGIFIKIRNYILKHKREEMGYSIGDVAKFLGVSRKAIYDYEKGDSDVSLEVAEKLIDLFGDDIIGDVIWDSIKSKKEILEEGVAEFSPENFKAKLIYKLKESGLNALSLKLTAADLIVKDSDNNRYLVTIENKDYNKSMKKFYEAKKLASYTKSELVIIIRTSKMLKECEDLGYKTYEENDIHSLIDEIKGSNGRQG,not soluble
3,MGSDKIHHHHHHMYYISLNVKRRKLNKDNNYNEFLTDPIYSRLIENVEKLKDKVFHLSKIVNLQAYMEGFTFYTSSNYRSTPIDVIPRIITSELFFKISNYLVARSYVLNKFIREVYQEGSNPIPDWIVKTTPYFRPEMMGFSPPKDIYIHVYGADIVRVNGVPFILEDNLRIPSGISYSYKAFEYVDRFLPELKEGYDNRVLQINGLDYLYDILRYVSGNKDPIIVILTDGNYNSAYFEHKFISEKLGIILAEPNDIYVKDKEVVVRTVDEGEVHVDVIYRRIEDLDYLTPGLMKAYLRGWVTLANAPGTGVADDKATFVWIPYLAEKYGIKLENVIQPYTICLYEKENLEKVITQPTRYVIKKREGYGGIGLAIVKDDNINVLKEIYKEYENFIAQEVLDFDTVISVVNDSFYETYADMRIFTYYDKVASAVLSRVGIMGSRITNNSSGGMVKPLWIIK,not soluble
4,MNGLLKYSFPICFSLLALFACEDDGIDVDNIEVPAGFALSAGTATNFLTSSYAYDRSADWITGAYDKRFTRGDKLYDDIRTSSNGIGGGLGPVYAGYSCGSCHRNAGRTQPTLWSEGGSGSSGFSSMLVYISRKNGAFFQDYGRVLHDQAIYGVKPEGKLKVEYTYETFQFPDGETYELCKPNYSIYEWYADSIKPEDLFCTVRIPLRHVGMGQMMALDPTEIEALAAKSNYPEYGISGRCNYISERGMRSLGLSGNKAQHADLTVELGFSSDMGVTNSRYPEEICEGQAQVNQGSMMGLSYAQLDVSTEEMENVDLYMQSLSVPARRNVNNEQVIKGEQNFYKAKCHLCHVTTLHTKPRGSILLNGTRLPWLGSQTIHPYSDFLLHDMGSEIMGVGLNDNYVSGLARGNEWRTTPLWGIGLQETVNGHTYFLHDGRARNYIEAIMWHGGEGEASKNLFKKMSKEDRNALVAFLKSL,not soluble
5,MAGETDLQKILRESNDQFTAQMFSEVVKANPGQNVVLSAFSVLPPLGQLALASVGESHDELLRALALPNDNVTKDVFADLNRGVRAVKGVDLKMASKIYVAKGLELNDDFAAVSRDVFGSEVQNVDFVKSVEAAGAINKWVEDQTNNRIKNLVDPDALDETTRSVLVNAIYFKGSWKDKFVKERTMDRDFHVSKDKTIKVPTMIGKKDVRYADVPELDAKMIEMSYEGDQASMIIILPNQVDGITALEQKLKDPKALSRAEERLYNTEVEITLPKFKIETTTDLKEVLSNMNIKKLFTPGAARLENLLKTKESLTVDAAIQKAFIEVNEEGAEAAAANAFGIVPKSLILYPEVHIDRPFYFELKIDGIPMFNGKVIEP,soluble
6,MDGILSHNSKKTADFDEYELYRRLKSWYKEDVEHVNEWREQAREDFDFYNGRQWAEEDLAVLKAQRRPVMTFNRIAPLVNAIVGAERNNKREVQFQPRQAGAAISNELLTGAAEWFRDEAEAEYADSDAFQDMVICGMGWTDTRLDYETDPEGIPAIQRLDPLKMVWDANAVRPNLIDAQRMWYVDRKPVEDAKSLFPDVAVEDLHADWATDNTTACEEYHVSLDAYNDHANADSLSQSASEKRYVTLVECRWFEYEVYFKAPDLQTGQMRSYSKQEFEQLQRVAPQLQGVRFNKKVVKRAFLGRRLLAKPDKPLAPDGQLGWECITGTLDKLKNQFYGIVRPAKDPQKWSNKYFSQVMYILNSQAKGGLMAERGAFDDERQALENWTRTDTITWVKNGALTGGKIQPKPSAQFPNGFFQLFNESREAITHVTGLSAEFIGTREVNQANVLENTRRQSTLNLLAGLFDNLKLYRCRQGKIILYLIQNYLSDGRLVRISGPENAQYVPLTREAVTKLEYDIIVDDSPTSPNEKERTFAAITQMLPLLGGFLTPEMIPDLLKLSPLPATLVANLTAKAQQAQQEQQQQQMMQQNQGTQLNPEQQAKIAALQQEAQAKGTLYQLDAQQKQLALQQKNIELFLKQEQARMQLELQRAKNEIAQRDLERKSLQAQLEHYRVLTKRLIPH,not soluble
7,MDSTKVTLTVRGSTAFGEVIAVVGSCETLGSWCQQKAVTLQPAEEDGTLWRTTIHVPRGAETKYRYFKAFILESKNAGGPCQVIVNRWETHQLPRSLSPSEPELVVDDGHFGVHDGAECVDSGWLTCQTEIRLRLHYSVKPPVSITKKKFKTSRIRLKPMLEGVEEEEDED,soluble
8,MGSDKIHHHHHHMITHQDLKQLQSLTKVPALSILLPTHRTSPDNKQDPILVKNLVSEATKRLDKEFTSRQLEPLLKQLETLVSEIDYPHTLDGLALYVSHDFAKLYYLPFPVPARVVIDQTFATRDLVYGRHREHRYWVLLLSQASTRLLAGTGETLEEVNDENFPMQMTGPGATTPLPYETDSSYRDDRYRRFFQQVNSALTLYENDSLPLIVGGVERQISFFQEVSQNTQAMSPRGYAYAGTLRGNFDRATIHELTPQVWSIMQSVQEAQQAEALQALDDAMGTQSVVSTIGEVWRLAHEGRGKLLLVEKNYHVPAILTEDGRFELVDQPGGTDVMDDAVDEIIEVVLAKGGKVAIVDDEVLSIYQRIALIFRY,not soluble
9,MKFPGKRKSKHYFPVNARDPLLQQIQPENESSVSWVVGIDQTLVDIEAKVDEAFIVRYGLSAGHSLVIEDDVAEALYQELVRNNLITHQFAGGTIGNTMHNYSVLADDRSVLLGVMCSNIEIGGYAYRYLCNTSSRTDLNYLQGVDGAIGRCFTLIGDSGERTFAISPGHMNKLRPESIPEAVIAGASALVLTSYLVRCKPGEPMPDATMKAIEYAKKHDVPVVLTLGTKYVIADNPAWWQEFLQEHVSILAMNEEEGEALTGFADPLSAANKALDWVDLVLCTAGPAGLYMAGFTEEEAKRKTQHPLLPGAIPEFNQFEFSRAMRHQDCVNPLRIYSHIAPYMGGPEKIMNTNGAGDGALAALLHDITANNYHRNNVPNSSKHKCKWLTYSSLAQVCKYANRVSYQVLNQHSPRLTRGLPEREDSLEEAYWDR,not soluble
10,MPAYHSKFDTELKVLPLGNTNMGKLPIRTNFKGPAPQTNQDDIIDEALTYFKPNIFFREFEIKGPADRTMIYLIFYITECLRKLQKSPNKIAGQKDLHALALSHLLPIPGENGFPLNSMYKAPQSKPDEDEMRAYLQQIRQEIGARLCDLAFPDPQDRPSKWWLCFARRRFMDKGLVGQGVNL,soluble
11,MELSADYLREKLRQDLEAEHVEVEDTTLNRCATSFRVLVVSAKFEGKPLLQRHRLVNECLAEELPHIHAFEQKTLTPEQWTRQRRE,soluble
12,MGHHHHHHSHMANSAGSMANSAGSMPPLSTIDPSGTRSKNMPIKDNALVMFNGKVYLLAKKGTDVLPSQIDQQNSVSPDTPVRKDTLQTVSSSPVTEISREVVNIVLAKSKSSQMETKSLSNTQLASMANLRAEKNKVEKPSPSTTNPHMNQSSNYLKQSKTLFTNPIFPVGFSTGHNAPRKVTAVIYARKGSVLQSIEKISSSVDATTVTSQQCVFRDQEPKIHNEMASTSDKGAQGRNDKKDSQGRSNKALHLKSDAEFKKIFGLTKDLRVCLTRIPDHLTSGEGFDSFSSLVKSGTYKETEFMVKEGERKQQNFDKKRKAKTNKKMDHIKKRKTENAYNAIINGEANVTGSQLQYFTNFRCVTT,not soluble
13,MEYKSPVYGIIAVPIEKIESNDYNPNAVAPPEMQLLYKSIKEDGYTMPIVCYYNEEKDKYIIVDGFHRYRVMLENEDIYDRENGLLPVSVIDKSLDERMASTIRHNRARGSHNVDLMSKIITELCEIGKSDEWISKHLGMEVDEILRLKQITGLAYLFKDKEFGNAWIPFGSDIEEEN,not soluble
14,MGSDKIHHHHHHMVKWYKTYLEVYGKSFDEISDDSIRKVKRQLKERQNDSPLVSVVLIAHNEERHLISCIWSLSENHCHFPIEIIAVNNNSTDKTEEILKSLGVTYYNETKKGPGYARQCGLDHAKGKYHICIDADTLYPPHYIETHVKYLMNPKVACTFSLWSFMVDERHSRFGLWCYEGLRDIYLRLQAIQRPELCVRGMAFSFNTEIGRRFGFRTDIIRGEDGSLALAMKPYGKIVFITSRKARVLTSNGTLNSEGSLIDNIWIRVIKALKEITGLFIKKTAYKDKDSNLIK,not soluble
15,MCKDVSGQNLLVAPDAINHHVKTCRENMRYMHYIAPEYENNTELTSAADIYSFGICSLEIAVIGGLSGCQNGSSEGPVTEDVIEKAIRSLEDPMQQDFIRQCLRKDPAERPSARELLFHQILFEVHSLKLLSAHAIVDSKKYEDVSESAFRIKDNETIAATSKLREMAYCQVAAFQVDLEKFLDDVRNGIYPLTAFAPLAHQPSTTLRAYSNTNPSTLITTDISAPSSTHPSANSTITAETSVNTSLPGQSSQPSGTTTNTNGPSSIGKSASPEAVDKKIGEVTSTESTSKVEVEVNGANVTIGSSNGRDAGSPTPEEEGEPNGERDMRLENRHILEINVHIENEEMSIVLLLEDQMHRQLTTSINKGDNPETLTENLITHGFMCQLDSEGVEKAIAVAFDIRAARIAEGVQEEENETSTRESNSEAPIEHGTSSSITNSVKPIVDSVAPSSQTPTTTTSS,not soluble
16,MIHETAQIHPTSVVEEGAIIGANVKIGPFCFVDSKVEIGEGTELLSHVVVKGPTKIGRFNRIFQFASIGEACQDLKYAGEDTQLIIGDRNTIRESVTMHRGTVQDKGITIVGSDNLFMINAHVAHDCVIGDRCIFANNATLAGHVKVGNQAIVGGMSAIHQFCHIGDHCMLGGGSIVVQDVPPYVMAQGNHCAPFGINVEGLKRRGFDKAEIHAIRRAYKSLYRNGLTLEAAKAEIAQEAEQYPSVKLFLDFLEKSERGIIR,not soluble
17,GHMGKPDISAKDLRNIMYDHLPGFGTAFHQLVQVICKLGKDSNSLDIIHAEFQASLAEGDSPQCALIQITKRVPIFQDAAPPVIHIRSRGDIPRACQKSLRPVPPSPKIDRGWVCVFQLQDGKTLGLAI,soluble
18,MSLDFAMLPPEVNSTRMYSGPGAGSLWAAAAAWDQVSAELQSAAETYRSVIASLTGWQWLGPSSVRMGAAVTPYVEWLTTTAAQARQTATQITAAATGFEQAFAMTVPPPAIMANRAQVLSLIATNFFGQNTAAIAALETQYAEMWEQDATAMYDYAATSAAARTLTPFTSPQQDTNSAGLPAQSAEVSRATANAGAADGNWLGNLLEEIGILLLPIAPELTPFFLEAGEIVNAIPFPSIVGDEFCLLDGLLAWYATIGSINNINSMGTGIIGAEKNLGILPELGSAAAAAAPPPADIAPAFLAPLTSMAKSLSDGALRGPGEVSAAMRGAGTIGQMSVPPAWKAPAVTTVRAFDATPMTTLPGGDAPAAGVPGLPGMPASGAGRAGVVPRYGVRLTVMTRPLSGEGHHHHHH,soluble
